From PMC9005958

Tested on: T1, GST-rCtrA (Ehrlichia chaffeensis), ORF:1c7d897d
T1 sequence: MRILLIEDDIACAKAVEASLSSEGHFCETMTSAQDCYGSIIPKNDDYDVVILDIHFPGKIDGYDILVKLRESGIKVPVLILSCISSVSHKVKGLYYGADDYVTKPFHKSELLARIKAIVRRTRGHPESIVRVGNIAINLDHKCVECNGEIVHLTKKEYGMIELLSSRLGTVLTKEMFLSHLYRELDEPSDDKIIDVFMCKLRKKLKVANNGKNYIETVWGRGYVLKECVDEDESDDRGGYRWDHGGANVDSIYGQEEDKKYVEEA
Assay: EMSA

Q: “ATATAACCTAATAGTGACAAATAAATTAACAATAGTAGAAGTGTCATATAAAAGCAAGTCAGAATATAAATTTTTGTATAAAATATCGGTAACTTTTGTAAGGAAAATTTAATATATTACGTCAGGTAAGTAATAGCAAAAAAACTGGTTAAGTATAGTATCATGTGTAAAGGTGAGAAAAACAGCACTTATAAACTAGTCCCCCCCCCCCCCCTCTTATTGCTACATTCTTTTGCCACTATTTTTATTTACCTGCAGCA (double strand) [p28 promoter]” was tested. Which binding did it give?
A: no binding
